This assay deals with TWIK-1 (human). Description: cell-based or functional assay.
Substance “apamin (from UniProt P01500 28-45) (peptide)” returned an inhibition of TWIK-1 K+ currents (voltage clamp, Xenopus oocytes) below 10 % inhibition. To “charybdotoxine (from UniProt P13487 23-59) (peptide)” belongs below 10 % inhibition; to dedrotoxine (peptide), below 10 % inhibition.

Values taken from US20020032322A1.
